Data taken from PMC10725331.

Experiments:
Experiment in all cases: direct binding assay (cell-free, plate-based luminescence); GFP-TRKB from 120 ug HEK293T lysate captured on anti-GFP coated 96-well plate; biotinylated BDNF 0.1-100 pM added for 1 h at RT in PBS; HRP-streptavidin and ECL; blank wells subtracted
GFP-TRKB.Tyr433Phe (rat) = GFP-TRKB.Tyr433Phe (rat) (UniProt Q63604)
GFP-TRKB.wt (rat) = GFP-TRKB.wt (rat) (UniProt Q63604)
GFP-TRKB/TRKA.TM (rat) = GFP-TRKB/TRKA.TM (rat) (UniProt Q63604)

## biotinylated BDNF (brain-derived neurotrophic factor) (ligand)
GFP-TRKB.Tyr433Phe (rat)
  Kd: 0.438 pM
GFP-TRKB.wt (rat)
  Kd: 0.39 pM
GFP-TRKB/TRKA.TM (rat)
  Kd: 0.387 pM
